Test results reported in paper PMC5214336.

What was measured:
[1] = molecular target: Bos1 model TA substrate labelled with 7-hydroxycoumaryl ethylglycine (Cm) (S. cerevisiae) (UniProt P25385); assay: FRET or BRET; stopped-flow time course of TA transfer from Sgt2 to Get3^BDP without Get4/5
[2] = molecular target: 2AG model TA substrate labelled with Cm (S. cerevisiae) (UniProt P25385); assay: FRET or BRET; pulse-chase: 20-50 nM preformed purified Get3^BDP•TA^Cm chased with a 10-fold excess of unlabeled Get3; loss of FRET followed in time
[3] = molecular target: 3AG model TA substrate labelled with Cm (S. cerevisiae) (UniProt P25385); assay: as above
[4] = molecular target: 4AG model TA substrate labelled with Cm (S. cerevisiae) (UniProt P25385); assay: as above
[5] = molecular target: 5AG model TA substrate labelled with Cm (S. cerevisiae) (UniProt P25385); assay: as above
[6] = molecular target: 6AG model TA substrate labelled with Cm (S. cerevisiae) (UniProt P25385); assay: as above
[7] = molecular target: Bos1 model TA substrate labelled with 7-hydroxycoumaryl ethylglycine (Cm) (S. cerevisiae) (UniProt P25385); assay: as above
[8] = molecular target: Bos1-FisC model TA substrate labelled with Cm (S. cerevisiae); assay: as above
[9] = molecular target: 2AG model TA substrate labelled with Cm (S. cerevisiae) (UniProt P25385); assay: FRET or BRET; stopped-flow time courses of TA transfer with Get4/5: ~50 nM Sgt2•TA^Cm in 150 nM Sgt2 mixed 1:1 with 400 nM Get3^BDP, 400 nM Get4/5, 2 mM ATP; donor fluorescence at 445 nm; biphasic fit
[10] = molecular target: 3AG model TA substrate labelled with Cm (S. cerevisiae) (UniProt P25385); assay: as above
[11] = molecular target: 4AG model TA substrate labelled with Cm (S. cerevisiae) (UniProt P25385); assay: as above
[12] = molecular target: 5AG model TA substrate labelled with Cm (S. cerevisiae) (UniProt P25385); assay: as above
[13] = molecular target: Bos1 model TA substrate labelled with 7-hydroxycoumaryl ethylglycine (Cm) (S. cerevisiae) (UniProt P25385); assay: as above
[14] = molecular target: Bos1-FisC model TA substrate labelled with Cm (S. cerevisiae); assay: as above
[15] = molecular target: 2AG model TA substrate labelled with Cm (S. cerevisiae) (UniProt P25385); assay: FRET or BRET; equilibrium titration of TA transfer from Sgt2 to Get3: 20-50 nM purified Sgt2•TA^Cm, 150 nM Sgt2, 150 nM Get4/5, 2 mM ATP, varied Get3^BDP; GET buffer, 25°C; apparent K1/2 at 150 nM Sgt2
[16] = molecular target: 3AG model TA substrate labelled with Cm (S. cerevisiae) (UniProt P25385); assay: as above
[17] = molecular target: 4AG model TA substrate labelled with Cm (S. cerevisiae) (UniProt P25385); assay: as above
[18] = molecular target: 5AG model TA substrate labelled with Cm (S. cerevisiae) (UniProt P25385); assay: as above
[19] = molecular target: Bos1 model TA substrate labelled with 7-hydroxycoumaryl ethylglycine (Cm) (S. cerevisiae) (UniProt P25385); assay: as above
[20] = molecular target: Bos1-FisC model TA substrate labelled with Cm (S. cerevisiae); assay: as above

B1: BODIPY-FL-labeled ybbR-Get3 (enzyme)
chain: MDLTVEPNLHSLITSTTHKWIFVGGKGGVGKTTSSCSIAIQMALSQPNKQFLLISTDPAHNLSDAFGEKFGKDARKVTGMNNLSCMEIDPSAALKDMNDMAVSRANNNGSDGQGDDLGSLLQGGALADLTGSIPGIDEALSFMEVMKHIKRQEQGEGETFDTVIFDTAPTGHTLRFLQLPNTLSKLLEKFGEITNKLGPMLNSFMGAGNVDISGKLNELKANVETIRQQFTDPDLTTFVCVCISEFLSLYETERLIQELISYDMDVNSIIVNQLLFAENDQEHNCKRCQARWKMQKKYLDQIDELYEDFHVVKMPLCAGEIRGLNNLTKFSQFLNKEYNPITDGKVIYELEDKE
modifications: CoA-BODIPY-FL enzymatically conjugated to the ybbR tag by the Sfp phosphopantetheinyl transferase
k fast of TA transfer from Sgt2 to Get3 (fast phase) [1]: 0.0094 s⁻¹ | k slow of TA transfer from Sgt2 to Get3 (slow phase) [1]: 0.003 s⁻¹ | t1/2 of TA transfer from Sgt2 to Get3 [1]: 98 s | koff [2]: 0.000383 s⁻¹ | koff [3]: 0.000433 s⁻¹ | koff [4]: 0.000283 s⁻¹ | koff [5]: 0.000567 s⁻¹ | koff [6]: 0.00333 s⁻¹ | koff [7]: 0.0003 s⁻¹ | koff [8]: 0.000483 s⁻¹ | k fast of TA transfer from Sgt2 to Get3 (fast phase) [9]: 0.077 s⁻¹ | k slow of TA transfer from Sgt2 to Get3 (slow phase) [9]: 0.007 s⁻¹ | t1/2 of TA transfer from Sgt2 to Get3 [9]: 13.5 s | k fast of TA transfer from Sgt2 to Get3 (fast phase) [10]: 0.164 s⁻¹ | k slow of TA transfer from Sgt2 to Get3 (slow phase) [10]: 0.017 s⁻¹ | t1/2 of TA transfer from Sgt2 to Get3 [10]: 4.8 s | k fast of TA transfer from Sgt2 to Get3 (fast phase) [11]: 0.183 s⁻¹ | k slow of TA transfer from Sgt2 to Get3 (slow phase) [11]: 0.033 s⁻¹ | t1/2 of TA transfer from Sgt2 to Get3 [11]: 6.3 s | k fast of TA transfer from Sgt2 to Get3 (fast phase) [12]: 0.151 s⁻¹ | k slow of TA transfer from Sgt2 to Get3 (slow phase) [12]: 0.023 s⁻¹ | t1/2 of TA transfer from Sgt2 to Get3 [12]: 11.8 s | k fast of TA transfer from Sgt2 to Get3 (fast phase) [13]: 0.047 s⁻¹ | k slow of TA transfer from Sgt2 to Get3 (slow phase) [13]: 0.011 s⁻¹ | t1/2 of TA transfer from Sgt2 to Get3 [13]: 17.7 s | k fast of TA transfer from Sgt2 to Get3 (fast phase) [14]: 0.063 s⁻¹ | k slow of TA transfer from Sgt2 to Get3 (slow phase) [14]: 0.009 s⁻¹ | t1/2 of TA transfer from Sgt2 to Get3 [14]: 12.3 s | K1/2 (Get3 for 50% TA transfer from Sgt2, at 150 nM Sgt2) [15]: 6.4 nM | K1/2 (Get3 for 50% TA transfer from Sgt2, at 150 nM Sgt2) [16]: 3.7 nM | K1/2 (Get3 for 50% TA transfer from Sgt2, at 150 nM Sgt2) [17]: 5.7 nM | K1/2 (Get3 for 50% TA transfer from Sgt2, at 150 nM Sgt2) [18]: 10 nM | K1/2 (Get3 for 50% TA transfer from Sgt2, at 150 nM Sgt2) [19]: 5.2 nM | K1/2 (Get3 for 50% TA transfer from Sgt2, at 150 nM Sgt2) [20]: 9.2 nM
